Molecular target: β-arrestin2 (β-arr2) (UniProt Q91YI4)
Experiment: co-IP, anti-Myc IP, anti-GFP blot
Settings: reference: wild type; sites S592,S594,T597,S599,S615,S619,S620,S642,S666,S774,S777,S791

Substance: Smo (mSmo, mammalian Smoothened) (from UniProt P56726) SA mutant (taken as SA0–5)
- binding against the reference: weaker
